Patent US20060073159A1, “Human anti-cancer immunotherapy” (The Trustees of the University of Pennsylvania, priority 2004, published 2006)

Assays:
HLA-A2 = biological target: T1, HLA-A2 (Homo sapiens, UniProt P04439, D140Y/D185E/D98H/E176V/E277Q/G131W/G231S/I119V/I121R/I166T/I218V/L300P/L318F/N151K/N90K/P208A/P217A/Q86G/Q94H/R138H/R169H/T345S); assay: flow-based T2 binding assay (HLA-A2 binding and MHC complex stability); conditions: 6 epitopes from each gene product compared, T2 cells
T1 construct: T2 cells are prepared to a concentration of 1×10^6 cells/mL; endogenous in cells; host or cells: T2 cells
Protocol: T2 cells are harvested as described elsewhere herin. T2 cells are wash three times in serum free media. T2 cells are prepared to a concentration of 1×10^6 cells/mL. 1 mL of T2 cells is added to each well of 24 well plate. B2M (1 mg/mL) is added to the mixture to give a final concentration of 2.5 ug/mL. Appropriate control or peptide at 50 ug/mL is added to each wll. The cells are incubated in an incubator at 37° C. For a positive control peptide, RT-POL vs flu or tax can be used.
Next day, cells are harvested and washed three times in serum-free RPMI. The supernatant is removed and the cells are resuspend in 800 ul of serum free IMDM. The cells are plated (400 ul of cells) to one well of a 48 well plate. […]
The fluorescence index (FI) can be calculated from the mean fluorescence intensity as follows: FI=(MFIpeptide/MFIno peptide)−1 The complex's half-life can be calculated using SigmaPlot regression analysis and the following formula: y=yo+a*e^bx t1/2=1/b*ln((y−yo)/a) with yo=Fimax/2 Conjugation of Monomers to Generate Tetramers
HLA-A2-restricted epitopes derived from HoxA9 and Meis I were predicted using two computational algorithms, and 6 epitopes from each gene product with the highest predicted likelihood of binding to HLA-A2 were evaluated empirically using a flow-based T2 assay, as described (Vonderheide et al., 1999, Immunity 10:673-679). […]

[1] = system: T2 cells loaded with cognate peptide; assay: lysis of peptide-loaded T2 cells by peptide-specific CTL; type: cell-based, human; conditions: not negative control viral peptide
Protocol: The following assay is adapted from Fischer et al. (2002, J. Immunol. Methods 259:159-169). Briefly, T2 cells are labeled as follows. T2 cells are plated at 1×10^6/mL in serum-free RPMI-1640×1 mL in 24 well plate. 2.5 ug/mL B2M is added to the cells. 1 ug/mL peptide (Tax or Flu) is added to the mixture. The cells are incubate overnight at 37° C. in a CO2 incubator. The cells are then washed once in RPMI-1640 (serum free). The supernatant is removed; leaving about 25 ul supernatant on the pellet. The remaining cells in suspension are agitated to mix with the supernatant. 1 mL of diluent C is added to resuspend the cells.
Immediately prior to staining, 4×10)(−6)M PKH26 dye is prepared at RT (1:250 dilution of stock; 4 ul of 996 ul diluent C). 1 mL of PKH26 dye is immediately added to 1 mL of cells. The sample is immediatedly mixed by gentle pipetting. The sample is incubate at RT for about 2-5 minutes, with periodical swirling of the tube to insure mixing. The staining reaction is stopped by adding 2 mL of serum in a compatible protein solution. This solution is incubated for 1 minute to stop the staining reaction. The sample is then diluted with 4 mL of complete media (T cell media). The cells are washed two to three times with T cell media.
To assay for the T2 cells, targets at 2e5/mL in IMDM 10% huSerum is prepared. Effectors are prepared at 2×10^6/mL and 2×10^5/mL in IMDM 10% huSerum. […]

[2] = system: HoxA9+ and Meis1+ leukemia cell lines; assay: lysis of leukemia cell lines by peptide-specific CTL; type: cell-based, human; conditions: antigen-dependent, MHC-restricted; HLA-A2-negative or antigen-negative leukemia cells not killed
Text: To determine whether these peptides could trigger the expansion of specific CTL, CD8+ T cells from normal HLA-A2+ donors were stimulated in vitro with autologous peptide-loaded antigen presenting cells, using a system previously described (Vonderheide et al., 1999, Immunity 10:673-679). […] Moreover, both Hox-TLD and Mei-AIY specific CTL were able to lyse HoxA9+ and Meis1+leukemia cell lines in an antigen-dependent, MHC-restricted fashion.

human HLA-A*0201 = biological target: T2, human HLA-A*0201 (human); assay: flow-based T2 assay (HLA-A2 stabilisation on peptide-pulsed T2 cells, anti-HLA-A2-FITC)
T2 construct: HLA-A2 on TAP-deficient T2 cells; Surface stabilisation by peptide was read with anti-HLA-A2-FITC by flow cytometry; also called HLA-A2; A2
Protocol: Next day, cells are harvested and washed three times in serum-free RPMI. The supernatant is removed and the cells are resuspend in 800 ul of serum free IMDM. The cells are plated (400 ul of cells) to one well of a 48 well plate. The cells are incubate for an additional 6 hours in an incubator at 37° C. The remaining cells are saved and place on ice for immediate analysis. The cells are stained for anti-HLA-A2-FITC and for IgG-FITC. The cells are anaylized on a flow cytometer.
HLA-A2-restricted epitopes derived from HoxA9 and Meis I were predicted using two computational algorithms, and 6 epitopes from each gene product with the highest predicted likelihood of binding to HLA-A2 were evaluated empirically using a flow-based T2 assay, as described (Vonderheide et al., 1999, Immunity 10:673-679). […] The same cells in normal HLA-A2+ donors were undetectable.

Q: What does the source list for “Hox-TLD: epitope of the antigen HOX-A9, SEQ ID NO:3 (TLDTHTLSL; human-derived peptide)”?
A: binding and MHC complex stability (HLA-A2): best binding and MHC complex stability; lysis of T2 cells loaded with cognate peptide by specific CTL [1]: able to lyse T2 cells loaded with cognate peptide; lysis of HoxA9+ and Meis1+ leukemia cell lines by specific CTL [2]: able to lyse

Q: Which “binding and MHC complex stability” value (HLA-A2) does the source give for “Mei-AIY: epitope of the antigen Meis1, SEQ ID NO:11 (AIYGHPLFPL; human-derived peptide)” here?
A: best binding and MHC complex stability

Q: And the “lysis of T2 cells loaded with cognate peptide by specific CTL” value [1]?
A: able to lyse T2 cells loaded with cognate peptide

Q: And the “lysis of HoxA9+ and Meis1+ leukemia cell lines by specific CTL” value [2]?
A: able to lyse

Q: Does AIYGHPLFPL [Mei-AIY] bind (human HLA-A*0201)?
A: binds

Q: Does TLDTHTLSL [Hox-TLD] bind (human HLA-A*0201)?
A: binds
